Marks after values point to notes of the source that are not given here.
Tests used:
[1] = BTK FAC plasma stability assay, rat plasma; type: in vitro ADME
In short: (§1)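 Stability in PBS buffer or EDTA-treated plasma is followed over 24 h at 38 °C with shaking. Protein precipitation with acetonitrile (glyburide 0.2 µM as internal standard) stops each timepoint, and LC-MS/MS gives analyte-to-standard area ratios.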

[2] = BTK FAC plasma stability assay, cyno plasma; type: in vitro ADME, cynomolgus monkey
BTK C481S = biological target: T1, BTK C481S (Homo sapiens, UniProt Q06187, C481S); test: PD screen in TMD8 BTK C481S mutant tumor-bearing mice, BTK levels and compound concentrations in blood and tumor; type: in vivo, mouse; details: i.v.; 50 umol/kg
T1 construct: endogenous in cells; host or cells: TMD8 BTK C481S mutant tumour xenografts in mice
T1 sequence (Q06187 whole entry C481S): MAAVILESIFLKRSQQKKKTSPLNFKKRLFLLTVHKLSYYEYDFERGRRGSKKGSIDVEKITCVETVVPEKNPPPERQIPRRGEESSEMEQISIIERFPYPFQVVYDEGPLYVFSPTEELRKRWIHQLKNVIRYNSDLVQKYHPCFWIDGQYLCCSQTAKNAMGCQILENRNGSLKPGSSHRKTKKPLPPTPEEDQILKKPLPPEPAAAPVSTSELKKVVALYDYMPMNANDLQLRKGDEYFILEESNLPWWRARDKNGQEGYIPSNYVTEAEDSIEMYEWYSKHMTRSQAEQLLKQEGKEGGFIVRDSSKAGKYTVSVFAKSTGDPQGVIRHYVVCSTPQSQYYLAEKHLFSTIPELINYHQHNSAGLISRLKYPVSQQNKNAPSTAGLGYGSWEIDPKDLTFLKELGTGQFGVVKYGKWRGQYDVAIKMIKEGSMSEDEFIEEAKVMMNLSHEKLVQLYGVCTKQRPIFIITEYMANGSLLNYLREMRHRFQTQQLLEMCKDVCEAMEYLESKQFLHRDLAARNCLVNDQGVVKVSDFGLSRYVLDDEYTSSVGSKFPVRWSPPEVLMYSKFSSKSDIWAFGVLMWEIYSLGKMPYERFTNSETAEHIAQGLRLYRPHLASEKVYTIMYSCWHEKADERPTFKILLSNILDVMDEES
Description: All animal studies were conducted in accordance with ethics and procedures covered by permit nos. BS-1975 issued by the Kantonales Veterinäramt Basel-Stadt and in strict adherence to guidelines of the Eidgenössisches Tierschutzgesetz and the Eidgenössische Tierschutzverordnung, Switzerland. All animals had access to food and water ad libitum and were identified with transponders. They were housed in a specific pathogen-free facility with a 12-h light/12-h dark cycle. For PD screen experiments in TMD8 BTK C481S mutant tumor-bearing mice, FAC was injected once. Animals were randomized into groups of 2 and tissue samples collected at day 0, 4, 7 and in some studies day 10 as well. Blood samples were collected and tumors were excised, weighed, frozen in liquid nitrogen and cryogenic dry pulverized with the CryoPrep™ system (model CP-02, Covaris). Concentrations of compounds in blood and tumors were determined by UPLC/MS-MS and BTK levels were analyzed by Meso Scale Discovery.

[3] = BTK FAC plasma stability assay, mouse plasma; type: in vitro ADME
In short: as §1

[4] = BTK FAC plasma stability assay, PBS buffer arm; type: physicochemical
In short: as §1

[5] = BTK FAC plasma stability assay, dog plasma; type: in vitro ADME

CCCCCCCCCCCN(C(=O)CCCCCCCCCC(=O)O)C(CCC(=O)NCCOCCOCCOCCOCCOCCOCCOCCOCCOCCOCCOCCOCCC(=O)N[C@@H](C)CC(=O)OC(C)(C)c1ccc(C(=O)Nc2cc(F)cc(-c3ncnc4[nH]c(-c5ccc(CCN6CCC7(CC6)CCN(C(=O)c6ccc(OC)c(N8CCC(=O)NC8=O)c6)CC7)cc5)cc34)c2C)c(F)c1)C(=O)O (stereo partly drawn) [Example A20, (6S)-51-Carboxy-2-(4-((3-(6-(4-(2-(9-(3-(2,4-dioxotetrahydropyrimidin-1(2H)-yl)-4-methoxybenzoyl)-3,9-diazaspiro[5.5]undecan-3-yl)ethyl)phenyl)-7H-pyrrolo[2,3-d]pyrimidin-4-yl)-5-fluoro-2-methylphenyl)carbamoyl)-3-fluorophenyl)-2,6-dimethyl-4,8,48,53-tetraoxo-52-undecyl-3,11,14,17,20,23,26,29,32,35,38,41,44-tridecaoxa-7,47,52-triazatrihexacontan-63-oic acid]
% Release of degrader after 24 h rat ([1]; 24 h): 0.3% | Plasma stability (h) rat ([1]; incubation to 24 h): >48 h | Plasma stability (h) cyno [2]: >48 h | % Release of degrader after 24 h cyno ([2]; 24 h): 0.2% | Duration of BTK degradation in mouse ≥90% (days) (BTK C481S): 7* days | % Release of degrader after 24 h mouse ([3]; 24 h): 0.5% | Plasma stability (h) mouse ([3]; incubation to 24 h): >48 h | % Release of degrader after 24 h PBS ([4]; 24 h): 0.2% | Plasma stability (h) PBS ([4]; incubation to 24 h): >48 h | Plasma stability (h) dog [5]: >48 h | % Release of degrader after 24 h dog ([5]; 24 h): 0.4%

Reference: US20240216513A1, “FATTY ACID-BIFUNCTIONAL DEGRADER CONJUGATES AND THEIR METHODS OF USE” (Novartis AG, priority 2021, published 2024)
